Results published in patent US20210388087A1 (Chugai, published 2021).

T1: Human CD3eg linker (human)
T1 construct: Single-chain construct; also called recombinant human CD3
T1 chain: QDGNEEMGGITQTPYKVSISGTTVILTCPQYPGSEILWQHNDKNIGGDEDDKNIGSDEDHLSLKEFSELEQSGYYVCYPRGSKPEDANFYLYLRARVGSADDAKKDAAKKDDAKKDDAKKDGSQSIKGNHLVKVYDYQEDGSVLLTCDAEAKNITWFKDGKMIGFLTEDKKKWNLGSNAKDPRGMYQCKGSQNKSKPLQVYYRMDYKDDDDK


Target: T1, Human CD3eg linker
Experiment: SPR; fold vs parent H183/L072

| Binder | fold change of affinity [fold] |
| --- | --- |
| H183/L072 VL A89S (antibody, name in Kabat numbering, V domains shown) VH: QVQLVESGGGLVQPGRSLRLSCAASGFTFSNAWMHWVRQAPGKGLEWVAQIKDKGNAYAAYYAPSVKGRFTISRDDSKNSIYLQMNSLKTEDTAVYYCHYVHYASASTVLPAFGVDAWGQGTTVTVSS VL: DIVMTQSPLSLPVTPGEPASISCQASQELVHMNRNTYLHWYQQKPGQAPRLLIYKVSNRFPGVPDRFSGSGSGTDFTLKISRVEAEDVGVYYCSQGTSVPFTFGQGTKLEIK | 0.6 |
| H183/L072 VL E27aL (antibody, name in Kabat numbering, V domains shown) VH: QVQLVESGGGLVQPGRSLRLSCAASGFTFSNAWMHWVRQAPGKGLEWVAQIKDKGNAYAAYYAPSVKGRFTISRDDSKNSIYLQMNSLKTEDTAVYYCHYVHYASASTVLPAFGVDAWGQGTTVTVSS VL: DIVMTQSPLSLPVTPGEPASISCQASQLLVHMNRNTYLHWYQQKPGQAPRLLIYKVSNRFPGVPDRFSGSGSGTDFTLKISRVEAEDVGVYYCAQGTSVPFTFGQGTKLEIK | 1.2 |
| H183/L072 VL E27aR (antibody, name in Kabat numbering, V domains shown) VH: QVQLVESGGGLVQPGRSLRLSCAASGFTFSNAWMHWVRQAPGKGLEWVAQIKDKGNAYAAYYAPSVKGRFTISRDDSKNSIYLQMNSLKTEDTAVYYCHYVHYASASTVLPAFGVDAWGQGTTVTVSS VL: DIVMTQSPLSLPVTPGEPASISCQASQRLVHMNRNTYLHWYQQKPGQAPRLLIYKVSNRFPGVPDRFSGSGSGTDFTLKISRVEAEDVGVYYCAQGTSVPFTFGQGTKLEIK | 1.2 |
| H183/L072 VL E27aT (antibody, name in Kabat numbering, V domains shown) VH: QVQLVESGGGLVQPGRSLRLSCAASGFTFSNAWMHWVRQAPGKGLEWVAQIKDKGNAYAAYYAPSVKGRFTISRDDSKNSIYLQMNSLKTEDTAVYYCHYVHYASASTVLPAFGVDAWGQGTTVTVSS VL: DIVMTQSPLSLPVTPGEPASISCQASQTLVHMNRNTYLHWYQQKPGQAPRLLIYKVSNRFPGVPDRFSGSGSGTDFTLKISRVEAEDVGVYYCAQGTSVPFTFGQGTKLEIK | 1.3 |
| H183/L072 VL E27aH (antibody, name in Kabat numbering, V domains shown) VH: QVQLVESGGGLVQPGRSLRLSCAASGFTFSNAWMHWVRQAPGKGLEWVAQIKDKGNAYAAYYAPSVKGRFTISRDDSKNSIYLQMNSLKTEDTAVYYCHYVHYASASTVLPAFGVDAWGQGTTVTVSS VL: DIVMTQSPLSLPVTPGEPASISCQASQHLVHMNRNTYLHWYQQKPGQAPRLLIYKVSNRFPGVPDRFSGSGSGTDFTLKISRVEAEDVGVYYCAQGTSVPFTFGQGTKLEIK | 1.4 |
| H183/L072 VL E27aG (antibody, name in Kabat numbering, V domains shown) VH: QVQLVESGGGLVQPGRSLRLSCAASGFTFSNAWMHWVRQAPGKGLEWVAQIKDKGNAYAAYYAPSVKGRFTISRDDSKNSIYLQMNSLKTEDTAVYYCHYVHYASASTVLPAFGVDAWGQGTTVTVSS VL: DIVMTQSPLSLPVTPGEPASISCQASQGLVHMNRNTYLHWYQQKPGQAPRLLIYKVSNRFPGVPDRFSGSGSGTDFTLKISRVEAEDVGVYYCAQGTSVPFTFGQGTKLEIK | 1.4 |
| H183/L072 VL E27aF (antibody, name in Kabat numbering, V domains shown) VH: QVQLVESGGGLVQPGRSLRLSCAASGFTFSNAWMHWVRQAPGKGLEWVAQIKDKGNAYAAYYAPSVKGRFTISRDDSKNSIYLQMNSLKTEDTAVYYCHYVHYASASTVLPAFGVDAWGQGTTVTVSS VL: DIVMTQSPLSLPVTPGEPASISCQASQFLVHMNRNTYLHWYQQKPGQAPRLLIYKVSNRFPGVPDRFSGSGSGTDFTLKISRVEAEDVGVYYCAQGTSVPFTFGQGTKLEIK | 1.1 |
| H183/L072 VL E27aS (antibody, name in Kabat numbering, V domains shown) VH: QVQLVESGGGLVQPGRSLRLSCAASGFTFSNAWMHWVRQAPGKGLEWVAQIKDKGNAYAAYYAPSVKGRFTISRDDSKNSIYLQMNSLKTEDTAVYYCHYVHYASASTVLPAFGVDAWGQGTTVTVSS VL: DIVMTQSPLSLPVTPGEPASISCQASQSLVHMNRNTYLHWYQQKPGQAPRLLIYKVSNRFPGVPDRFSGSGSGTDFTLKISRVEAEDVGVYYCAQGTSVPFTFGQGTKLEIK | 1.3 |
| H183/L072 VL E27aA (antibody, name in Kabat numbering, V domains shown) VH: QVQLVESGGGLVQPGRSLRLSCAASGFTFSNAWMHWVRQAPGKGLEWVAQIKDKGNAYAAYYAPSVKGRFTISRDDSKNSIYLQMNSLKTEDTAVYYCHYVHYASASTVLPAFGVDAWGQGTTVTVSS VL: DIVMTQSPLSLPVTPGEPASISCQASQALVHMNRNTYLHWYQQKPGQAPRLLIYKVSNRFPGVPDRFSGSGSGTDFTLKISRVEAEDVGVYYCAQGTSVPFTFGQGTKLEIK | 1.2 |
| H183/L072 VL E27aP (antibody, name in Kabat numbering, V domains shown) VH: QVQLVESGGGLVQPGRSLRLSCAASGFTFSNAWMHWVRQAPGKGLEWVAQIKDKGNAYAAYYAPSVKGRFTISRDDSKNSIYLQMNSLKTEDTAVYYCHYVHYASASTVLPAFGVDAWGQGTTVTVSS VL: DIVMTQSPLSLPVTPGEPASISCQASQPLVHMNRNTYLHWYQQKPGQAPRLLIYKVSNRFPGVPDRFSGSGSGTDFTLKISRVEAEDVGVYYCAQGTSVPFTFGQGTKLEIK | 1 |
| H183/L072 VL A89T (antibody, name in Kabat numbering, V domains shown) VH: QVQLVESGGGLVQPGRSLRLSCAASGFTFSNAWMHWVRQAPGKGLEWVAQIKDKGNAYAAYYAPSVKGRFTISRDDSKNSIYLQMNSLKTEDTAVYYCHYVHYASASTVLPAFGVDAWGQGTTVTVSS VL: DIVMTQSPLSLPVTPGEPASISCQASQELVHMNRNTYLHWYQQKPGQAPRLLIYKVSNRFPGVPDRFSGSGSGTDFTLKISRVEAEDVGVYYCTQGTSVPFTFGQGTKLEIK | 0 |
| H183/L072 VL E27aI (antibody, name in Kabat numbering, V domains shown) VH: QVQLVESGGGLVQPGRSLRLSCAASGFTFSNAWMHWVRQAPGKGLEWVAQIKDKGNAYAAYYAPSVKGRFTISRDDSKNSIYLQMNSLKTEDTAVYYCHYVHYASASTVLPAFGVDAWGQGTTVTVSS VL: DIVMTQSPLSLPVTPGEPASISCQASQILVHMNRNTYLHWYQQKPGQAPRLLIYKVSNRFPGVPDRFSGSGSGTDFTLKISRVEAEDVGVYYCAQGTSVPFTFGQGTKLEIK | 1.1 |
| H183/L072 VL E27aD (antibody, name in Kabat numbering, V domains shown) VH: QVQLVESGGGLVQPGRSLRLSCAASGFTFSNAWMHWVRQAPGKGLEWVAQIKDKGNAYAAYYAPSVKGRFTISRDDSKNSIYLQMNSLKTEDTAVYYCHYVHYASASTVLPAFGVDAWGQGTTVTVSS VL: DIVMTQSPLSLPVTPGEPASISCQASQDLVHMNRNTYLHWYQQKPGQAPRLLIYKVSNRFPGVPDRFSGSGSGTDFTLKISRVEAEDVGVYYCAQGTSVPFTFGQGTKLEIK | 1.1 |
| H183/L072 VL E27aQ (antibody, name in Kabat numbering, V domains shown) VH: QVQLVESGGGLVQPGRSLRLSCAASGFTFSNAWMHWVRQAPGKGLEWVAQIKDKGNAYAAYYAPSVKGRFTISRDDSKNSIYLQMNSLKTEDTAVYYCHYVHYASASTVLPAFGVDAWGQGTTVTVSS VL: DIVMTQSPLSLPVTPGEPASISCQASQQLVHMNRNTYLHWYQQKPGQAPRLLIYKVSNRFPGVPDRFSGSGSGTDFTLKISRVEAEDVGVYYCAQGTSVPFTFGQGTKLEIK | 1.2 |
| H183/L072 VL A89W (antibody, name in Kabat numbering, V domains shown) VH: QVQLVESGGGLVQPGRSLRLSCAASGFTFSNAWMHWVRQAPGKGLEWVAQIKDKGNAYAAYYAPSVKGRFTISRDDSKNSIYLQMNSLKTEDTAVYYCHYVHYASASTVLPAFGVDAWGQGTTVTVSS VL: DIVMTQSPLSLPVTPGEPASISCQASQELVHMNRNTYLHWYQQKPGQAPRLLIYKVSNRFPGVPDRFSGSGSGTDFTLKISRVEAEDVGVYYCWQGTSVPFTFGQGTKLEIK | 0.1 |
| H183/L072 VL A89V (antibody, name in Kabat numbering, V domains shown) VH: QVQLVESGGGLVQPGRSLRLSCAASGFTFSNAWMHWVRQAPGKGLEWVAQIKDKGNAYAAYYAPSVKGRFTISRDDSKNSIYLQMNSLKTEDTAVYYCHYVHYASASTVLPAFGVDAWGQGTTVTVSS VL: DIVMTQSPLSLPVTPGEPASISCQASQELVHMNRNTYLHWYQQKPGQAPRLLIYKVSNRFPGVPDRFSGSGSGTDFTLKISRVEAEDVGVYYCVQGTSVPFTFGQGTKLEIK | 0.4 |
| H183/L072 VL E27aM (antibody, name in Kabat numbering, V domains shown) VH: QVQLVESGGGLVQPGRSLRLSCAASGFTFSNAWMHWVRQAPGKGLEWVAQIKDKGNAYAAYYAPSVKGRFTISRDDSKNSIYLQMNSLKTEDTAVYYCHYVHYASASTVLPAFGVDAWGQGTTVTVSS VL: DIVMTQSPLSLPVTPGEPASISCQASQMLVHMNRNTYLHWYQQKPGQAPRLLIYKVSNRFPGVPDRFSGSGSGTDFTLKISRVEAEDVGVYYCAQGTSVPFTFGQGTKLEIK | 1.2 |
| H183/L072 VL E27aK (antibody, name in Kabat numbering, V domains shown) VH: QVQLVESGGGLVQPGRSLRLSCAASGFTFSNAWMHWVRQAPGKGLEWVAQIKDKGNAYAAYYAPSVKGRFTISRDDSKNSIYLQMNSLKTEDTAVYYCHYVHYASASTVLPAFGVDAWGQGTTVTVSS VL: DIVMTQSPLSLPVTPGEPASISCQASQKLVHMNRNTYLHWYQQKPGQAPRLLIYKVSNRFPGVPDRFSGSGSGTDFTLKISRVEAEDVGVYYCAQGTSVPFTFGQGTKLEIK | 1.1 |
| H183/L072 VL E27aV (antibody, name in Kabat numbering, V domains shown) VH: QVQLVESGGGLVQPGRSLRLSCAASGFTFSNAWMHWVRQAPGKGLEWVAQIKDKGNAYAAYYAPSVKGRFTISRDDSKNSIYLQMNSLKTEDTAVYYCHYVHYASASTVLPAFGVDAWGQGTTVTVSS VL: DIVMTQSPLSLPVTPGEPASISCQASQVLVHMNRNTYLHWYQQKPGQAPRLLIYKVSNRFPGVPDRFSGSGSGTDFTLKISRVEAEDVGVYYCAQGTSVPFTFGQGTKLEIK | 1 |
| H183/L072 VL E27aN (antibody, name in Kabat numbering, V domains shown) VH: QVQLVESGGGLVQPGRSLRLSCAASGFTFSNAWMHWVRQAPGKGLEWVAQIKDKGNAYAAYYAPSVKGRFTISRDDSKNSIYLQMNSLKTEDTAVYYCHYVHYASASTVLPAFGVDAWGQGTTVTVSS VL: DIVMTQSPLSLPVTPGEPASISCQASQNLVHMNRNTYLHWYQQKPGQAPRLLIYKVSNRFPGVPDRFSGSGSGTDFTLKISRVEAEDVGVYYCAQGTSVPFTFGQGTKLEIK | 1.1 |
